Measurements as given in patent US20160333110A1 (CHIOME BIOSCIENCE, published 2016).

T1: peptide No. 8 of Table 11 (SEQ ID NO: 216) (human)
T1 peptide: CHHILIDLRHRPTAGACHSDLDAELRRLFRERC

T2: peptide No. 4 of Table 11 (SEQ ID NO: 212) (human)
T2 peptide: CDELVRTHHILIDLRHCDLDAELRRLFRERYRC

T3: recombinant hTACSTD2-Fc-His protein (Creative BioMart) (human, UniProt P09758 27-274, limits assumed)
T3 construct: bought protein; also called hTROP-2 (low-density antigen-coated ELISA); not shown: Fc part of the bought fusion protein; not described; His tag
T3 sequence: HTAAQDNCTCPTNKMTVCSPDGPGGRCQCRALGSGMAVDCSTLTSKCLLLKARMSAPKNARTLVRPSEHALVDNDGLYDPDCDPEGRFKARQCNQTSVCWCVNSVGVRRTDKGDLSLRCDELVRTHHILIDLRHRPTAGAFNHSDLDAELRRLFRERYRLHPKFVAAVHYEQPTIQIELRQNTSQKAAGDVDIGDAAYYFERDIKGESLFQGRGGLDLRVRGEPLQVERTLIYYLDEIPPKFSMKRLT


Columns and labels:
[1] = biological target: T1, peptide No. 8 of Table 11 (SEQ ID NO: …); test: PEPSCAN/CLIPS peptide ELISA, antibody 1 µg/mL
Description: (§1) 5034 types of the synthesized peptides were covalently bound to PEPSCAN cards (455 peptides/card), and the binding of the synthesized peptides to antibodies was then analyzed by the ELISA method. […] After washing, the resultant was allowed to react with a 1000-fold diluted peroxidase-secondary antibody complex at 25° C. for 1 hour. After washing, a substrate solution (a solution containing 2,2′-azino-di-3-ethylbenzthiazoline sulfonate (ABTS) and 2 μL of 3% hydrogen peroxide solution) was added to the reaction solution, followed by a chromogenic reaction for 1 hour. The binding activity of the antibodies was quantified by photographing with a CCD camera and then performing an image analysis.

[2] = biological target: T2, peptide No. 4 of Table 11 (SEQ ID NO: …); test: PEPSCAN/CLIPS peptide ELISA, antibody 1 µg/mL
Description: as §1

[3] = biological target: T3, recombinant hTACSTD2-Fc-His protein …; test: low-density antigen-coated ELISA, plate coated with 0.1 µg/mL hTACSTD2-Fc-His, purified antibodies; K5-70 (parental antibody); low-density ELISA, 0.1 µg/mL hTROP-2 coat

binding of 16-16 [1] | binding of 16-16 [2] | EC50 [3] [µg/mL] | Binder
620 | 713 |  | anti-hTROP-2 monoclonal antibody clone T6-16 (antibody, mouse IgG2a, V domains shown, mouse IgG2a, hybridoma FERM BP-11346; also called T6-16 antibody) VH: EVQLQQSGPELVKPGASVKISCKASGYTFTDYNMHWVKQSHGKNLEWIGYIYPYNGGTGYNQRFKSRATMTVDKSSSTAYMELRSLTSDDSAVYYCAREDYGSSPSYAMDYWGQGTSVIVSS VL: DVVMTQTPLSLPVSLGDQASISCRSSQSLVHGNGNTYLHWYLQKPGQSPKLLIYKVSNRFSGVPDRFSGSGSGTDFTLKISRVEAEDLGVYFCSQTTHVPTFGSGTKLEIK
 |  | 0.0114 | anti-hTROP-2 monoclonal antibody clone K5-70 (antibody, mouse IgG2a, V domains shown, mouse IgG2a, hybridoma FERM BP-11251; also called K5-70 antibody; mouse K5-70 antibody) VH: QVQLQQPGAELVRPGASVKLSCKASGYTFTIYWINWVKQRPGQGLEWIGNIYPSDSYTNYNQKFKDKATLTVDKSSSTAYMQLSSPTSEDSAVYYCTRTSMADYWGQGTTLTVSS VL: DILLTQSPAILSVSPGERVSFSCRASQSIGTSIHWYQQRTNGSPRLLIKYASESISGIPSRFSGSGSGTDFTLSINSVESEDIADYYCQQSNSWPFTFGSGTKLEIK
